The text below walks through data of the DeepSol protein solubility set.

This data set is described as follows: soluble on expression in E. coli; label from the status in PepcDB or PDB records.
As to “MDAAKDLRMTQLLQDPHSVREEREKVLEVAIGREVRAFRKQQGITVAELSKLTDLSIGMLSKIENGNTSPSLTTLQTLANALSVPLTAFFKGYEEKREAIHTKAGQGLEIERAGTRAGHQYSLLGHIGSNSSGVIVEPYLITLSTESDTFKTFQHDGIEMIYMLEGKVDYLHGSEIYPLEPGDTLFFDADAPHGPERLVELPTRYLSVICYPQQKKG”, the “soluble on expression in E. coli” value was “not soluble”.

With “MDVIRSSASDILGALRSRQLSSEAVMEATLARIAAVNPELNAIVALRPTDELLAEARAADAVAPEARGALHGLPIAVKDLVETAGIVSSHGSPLFRDHVPERDDLIAARIRAAGAILIGKTNVPEFGLGSHTFNPVYGATGNPYAPNLTCGGSSGGAAVALATGMTALADGSDMMGSLRNPAAWCNVYGFRPSWGRVPSEPLGDTFLHQLATLGPMGRSPADIAILLDVISGADPRQPHGFDSAPVAPLRPAATRGLRLGWLGDWGGAFPTEPGILPLCETALKIFSDLGCTVEKVPPPFDAEALWESWITLRSWSVGAGLAPLSEKRAQLKDSAQWELDRGLALSAMEVDRASVTRSAWFMRATELFESYDALILPSAQVWPFDLDRPYPTEIAGQAMDTYHRWMQVVTPVSLIGLPSLAMPAGFGDAGLPMGVQIFGPRGGDAALLALGEAYHAATTWPQRHP”, the “soluble on expression in E. coli” value is reported as “not soluble”.

“GMEFYEVIKKRKSIKKFEQTAIDRDKLLKIIDMAMRAPSWKNKTPYKFIVVESDKLKLDIANAIENKTSAASEAVLNSPMTIVAVANPEESGDVSGKEIYLIDTAIAMEHIVLGATDEGYGTCWIAAFNENKIKEALKIPDNLRVVALTPLGVPKDSAEDEPHHPKKDMDEYLYIDKWGTSFMESNVKILEKN”: the “soluble on expression in E. coli” value is on record as “soluble”.

As to “MDKAIIDIYYCRQCNWMLRSTWLSQELLHTFSEEIDTISLHPDTGGRFEIFCNGQQIWERKKDGGFPEAKVLKQRVRDIIDPERDLGHSDTKLEHHHHHH”, the “soluble on expression in E. coli” value was “soluble”.

As to “PQASAKEYVTTTGLSPDGNQYSIGWEVPSTQEPARRSKRSTKDYAFETNQLENGMQTLIHIENSEAPTEYRFPLSLPQEAEVIPFSEGSED”, the “soluble on expression in E. coli” value is listed as “not soluble”.

For the sequence “MKIAITITVLMLSICCSSASSDICPGFLQVLEALLLGSESNYEAALKPFNPASDLQNAGTQLKRLVDTLPQETRINIVKLTEKILTSPLCEQDLRV”, the “soluble on expression in E. coli” value is listed as “soluble”.

Regarding “MKILVTGTEGYLGSLLPSLLIAKGHEVSGLDTGFYKVGWLYNGTNITAKTLNKDIRNIIPEDLEGVDAIVHMAELSNDPAGQLAPHITYEINHLGSVHLANLAKRMGVRRFLYMSSCSVYGVASEGDVTEESPVNPQTAYAECKTLVERDIKPLADDDFSPTFMRNATAFGASPRMRFDIVLNNLSGLAWTTKEIKMTSDGTPWRPLVHALDICQAIICALEAPRDIVHNQVFNVGDTANNYRVKEIAEIIADTFPSCKLTFGNNGSDNRSYRVSFEKINTVLPGFKCEWNAQTGAKQLFDLFSQIDMTEDTFLFRGFTRLKQLEYLIRTQQIDQNFFWAKCDNVVV”, the “soluble on expression in E. coli” value is “not soluble”.

Turning to “MNYLQYYPTDVINGEGTRCTLFVSGCTHACKGCYNQKSWSFSAGVLFDDVMEQQIINDLKDTRIKRQGLTLSGGDPLHPLNVETLLPFVQRVKRECPDKDIWVWTGYKLDELDKQQRAMLPYIDVLIDGKFIQEQADPSLVWRGSANQIIHRFKLLEHHHHHH”, the “soluble on expression in E. coli” value is reported as “soluble”.

Turning to “MSLSADFSQPLADRLRPRTLDEYIGQLHLIEPGRPLYESIRRGRLHSMIFWGPPGTGKTTLARLVARHADAEFLPVSAVLSGVKEIREALARAVQFKAAGRRAILFVDEVHRFNKSQQDAFLAHVEDGTVSFIGATTENPSFEVNSALLSRARVYVLKALTEADLLGVIDRALSDAERGLGGRGLNMSDPVRMAYVRAADGDARRLLNLLEITADLLDAGQTVVSEEVARQVLASGTTRRFDKQGEEFYNQISALHKSVRGSSPDAALYWLCRMLDGGCDPLYLARRLVRIASEDIGNADPKALELCLNAWNAQERLGSPEGELALAQAVVYLAVAPKSNAVYEAYKAARADAARSGSLPVPLHLRNAPTGLMKGLDYGKGYRYAHDYPDAYVPGENYFPEGLERREYYRPVNRGMEIKIAEKLERLKALDKEADEGHHHHHH”, the “soluble on expression in E. coli” value is on record as “not soluble”.

With “MKIYYEGYGCTLNQGETGLYVNKLLSEGSVLVSRPDEADISIIGTCAVIQKTEDHMLKRIEELSRLGRVKVIGCLSAIKGSEISGGNIEAIDRNEFQQFQEYLEDTSIIDAEIMSGIPINQGCTGKCNFCISHIARGKLVSRRPEKIVNQIRMMVAAGKREIRISSLDTAAYGKDTGYRLPSLIKDITAVDGDFMLRVGMMEPRNTIEILDDLLEAYDDPKVFKFLHIPVQSGDDRVLTAMNREYTVDEFMQIIESFRKRFPDMTISTDVIIGYHAENDRSFDLTCDLIRKVQPEIINVTRFSPRELTPDFEHRPRPTNVLKDQDRTMAEIHRKIVSERFSALVGKVERILITEDGKPGTMVGRDASYRPVVIRAPAEKYTWHSARIIGYENTSLIGELVDLEHHHHHH”, the “soluble on expression in E. coli” value is given as “soluble”.

Consider “MGSDKIHHHHHHMINSHQTQPLLRLENIEKSYGSHRILNKVSFCLYPGEITALIGDNGAGKSTLVQIISGYIQADKGNIYWQEQPLCYSNQYNAPFEMRRLGIQIVHQQLALIDELSIWRNFFLGNEINKKIGPFKFLNIRLMQHIASQSLQSFGLVCLPNIDLPVKKLSGGERQMLVVCRAKYFNAKLLILDEPTSALSPAQADKVLQIIKNIAQAGIAIVFITHNPAHIQNTAHKVIKLSCGTIEIMELTNTLIKG”, for which the “soluble on expression in E. coli” value is reported as “not soluble”.

On to “MQNKIVKIGNIDVANDKPFVLFGGMNVLESRDMAMQVCEAYVKVTEKLGVPYVFKASFDKANRSSIHSYRGPGMEEGLKIFQELKDTFGVKIITDVHEIYQCQPVADVVDIIQLPAFLARQTDLVEAMAKTGAVINVKKPQFLSPSQMGNIVEKIEECGNDKIILCDRGTNFGYDNLIVDMLGFSVMKKASKGSPVIFDVTHSLQCRDPFGAASSGRRAQVTELARSGLAVGIAGLFLEAHPNPNQAKCDGPSALPLSALEGFVSQMKAIDDLVKSFPELDTSIGSHHHHHH”, for which the “soluble on expression in E. coli” value is “soluble”.

In the case of “MMTQGPNLIGIHTNTKENEETQKFVNWFLNTSLTWDNNESKTPAQYFTESASYILPLKETFTGSNNKGQSGKNDGKNSNNTFKAKALELFKEQSENKIVGYSDPSDFRGGKFRESIGSAFNATVNSHVDFNTFVANFRANLGSGYDK”, the “soluble on expression in E. coli” value is reported as “soluble”.

Regarding “MIKKVIKRDGREKDFDILRIEHAIKKAEKSIEVNECWDDDALCDILMKIDETNLKKIEIEKVQDIVIDVLNKYNKNVAKAYSDYRKERTKIRQDKSNLMKIIDKIGVETDRDNANVGNNFSSKLLRIASESNKVHNLLK”, the “soluble on expression in E. coli” value was “not soluble”.

As to “MENSNENDIVLTWWDWGHFVTYYARRSPVAQGSPNSGVAGYYLGLVDNGWAQSLGVDYVIVSLYDILKFEAIVDTAKLSRKWENISRADYGVDFLKLTESTGSILRFDSQYSTLIVKEGNIRVILSGKVVYPREAIIESNGRIKNLKYPARSGVYVYVNLDYGYAILEHHHHHH”, the “soluble on expression in E. coli” value is listed as “not soluble”.

Consider “AQVPASGKLLVDPRYSTNDQEESILQDIITRFPNVVLMKQTAQLRAMMTIIRDKETPKEEFVFYADRLIRLLIEEALNELPFQKKEVTTPLDVSYHGVSFYSKICGVSIVRAGESMESGLRAVCRGVRIGKILIQRDETTAEPKLIYEKLPADIRERWVMLLDPMCATAGSVCKAIEVLLRLGVKEERIIFVNILAAPQGIERVFKEYPKVRMVTAAVDICLNSRYYIVPGIGDFGDRYFGTM”, for which the “soluble on expression in E. coli” value is reported as “soluble”.

Consider “MGSDKIHHHHHHMMGKAALMDAIAGTNRGLLATEAQKQAILAAIANLEDFNPTPRPVEAGNLLDGNWRLLYTTSKALLNLDRLPFCKLGQIYQCIRVETTSVYNIAEIYGLPYLEGLVSVAAKFEPVSGRRVQVKFERSIIGLQRLIEYNSPVTFIQQIEAGKKFAGIDFAIKSDKQQGWLDITYIDNDLRIGRGNEGSVFILSKT”, for which the “soluble on expression in E. coli” value was “not soluble”.
